According to US20260008815A1, “CYCLIC PEPTIDE OR SALT THEREOF, AND USES THEREOF” (FUJIFILM Corporation, priority 2023, published 2026):
Bridge positions count the residues as written; N and C are the ends. Ends that are not written are not given here. COCH2 = acetyl group that carries the bridge

target: T1, Recombinant Human FGFR2 alpha (IIIc) Fc Chimera Protein, CF (R&D systems, 712-FR-050) (human, UniProt P21802 22-377); experiment: ELISA on plate-bound FGFR2-Fc
T1 construct: bought; not shown: Fc part of the chimera
Procedure, shortened: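 Plate-immobilized FGFR2 alpha (IIIc)-Fc (5 ng/well) incubated with peptide 3 h at room temperature, then anti-Myc antibody 2 h and chemiluminescent ELISA substrate. Signal corrected by subtracting FGFR-free wells; binding affinity scored into categories from the dose-response.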

T1 sequence (P21802 22-377, change not shown): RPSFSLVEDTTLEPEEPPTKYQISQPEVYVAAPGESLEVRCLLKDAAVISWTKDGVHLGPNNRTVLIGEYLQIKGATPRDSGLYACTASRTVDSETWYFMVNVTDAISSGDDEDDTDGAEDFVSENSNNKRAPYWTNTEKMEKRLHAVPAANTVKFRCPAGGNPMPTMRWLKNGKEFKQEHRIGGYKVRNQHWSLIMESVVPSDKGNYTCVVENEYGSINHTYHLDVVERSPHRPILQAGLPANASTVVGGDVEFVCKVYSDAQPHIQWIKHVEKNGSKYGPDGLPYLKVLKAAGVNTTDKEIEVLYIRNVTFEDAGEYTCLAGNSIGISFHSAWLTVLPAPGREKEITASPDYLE

Binder	ELISA luminescence signal at 10 nmol/L peptide, relative to SEQ ID NO: 47 (=1)
YCEENYLDPEQYQYFIHFK(COCH2)Y (thioether 2-19 (inferred)) [cyclic peptide SEQ ID NO: 305]	≥ 0.7 ratio
YCEENYLDPEQYQYFIYFK(COCH2)G (thioether 2-19 (inferred)) [cyclic peptide SEQ ID NO: 308]	≥ 0.7 ratio
YCAENYLDPEQYQYFIYFK(COCH2)Y (thioether 2-19 (inferred)) [cyclic peptide SEQ ID NO: 323]	≥ 0.7 ratio
YCEENYLDPEQYQYFIYFK(COCH2)H (thioether 2-19 (inferred)) [cyclic peptide SEQ ID NO: 321]	≥ 0.7 ratio
YCEENYLDPEQYQYFAYFK(COCH2)Y (thioether 2-19) [cyclic peptide SEQ ID NO: 332]	≥ 0.7 ratio
YCEENYLDPEQYQYFIDFK(COCH2)Y (thioether 2-19 (inferred)) [cyclic peptide SEQ ID NO: 302]	≥ 0.7 ratio
YCEENYLDPEQYQYFIQFK(COCH2)Y (thioether 2-19 (inferred)) [cyclic peptide SEQ ID NO: 299]	≥ 0.7 ratio
YCEANYLDPEQYQYFIYFK(COCH2)Y (thioether 2-19 (inferred)) [cyclic peptide SEQ ID NO: 324]	≥ 0.7 ratio
YCEENYLDPEQYAYFIYFK(COCH2)Y (thioether 2-19) [cyclic peptide SEQ ID NO: 331]	≥ 0.7 ratio
YCEENYLDPEQYQYFIYFK(COCH2)I (thioether 2-19 (inferred)) [cyclic peptide SEQ ID NO: 310]	≥ 0.7 ratio
YCEENYLDPEQYQYFIYFK(COCH2)T (thioether 2-19 (inferred)) [cyclic peptide SEQ ID NO: 317]	≥ 0.7 ratio
ACEENYLDPEQYQYFIYFK(COCH2)Y (thioether 2-19 (inferred)) [cyclic peptide SEQ ID NO: 322]	≥ 0.7 ratio
YCEENYLDAEQYQYFIYFK(COCH2)Y (thioether 2-19 (inferred)) [cyclic peptide SEQ ID NO: 329]	≥ 0.7 ratio
YCEENYLDPEQYQYFIVFK(COCH2)Y (thioether 2-19 (inferred)) [cyclic peptide SEQ ID NO: 295]	≥ 0.7 ratio
YCEENYLDPEQYQYFIYFK(COCH2)L (thioether 2-19 (inferred)) [cyclic peptide SEQ ID NO: 309]	≥ 0.7 ratio
YCEENYADPEQYQYFIYFK(COCH2)Y (thioether 2-19 (inferred)) [cyclic peptide SEQ ID NO: 327]	0.1 to 0.5 ratio
YCKENYLDPEQYQYFIYFK(COCH2)Y (thioether 2-19; not fully specified; printed as Y-(C)-KENYLDPEQYQYFIYF-(K(acetyl))-Y) [cyclic peptide SEQ ID NO: 336]	≥ 0.7 ratio
YCEENYLDPEQYQYFIYYK(COCH2)Y (thioether 2-19 (inferred)) [cyclic peptide SEQ ID NO: 306]	≥ 0.7 ratio
YCEENYLDPEQYQYFIYFK(COCH2)W (thioether 2-19 (inferred)) [cyclic peptide SEQ ID NO: 313]	≥ 0.7 ratio
YCEENYLDPEQYQYFIWFK(COCH2)Y (thioether 2-19 (inferred)) [cyclic peptide SEQ ID NO: 297]	≥ 0.7 ratio
YCEENYLDPEQYQYFIYFK(COCH2)V (thioether 2-19 (inferred)) [cyclic peptide SEQ ID NO: 311]	≥ 0.7 ratio
YCEENYLDPEQYQYFIYFK(COCH2)E (thioether 2-19 (inferred)) [cyclic peptide SEQ ID NO: 319]	≥ 0.7 ratio
YCEENYLDPAQYQYFIYFK(COCH2)Y (thioether 2-19 (inferred)) [cyclic peptide SEQ ID NO: 330]	≥ 0.7 ratio
YCEENYLDPEQYQYFISFK(COCH2)Y (thioether 2-19 (inferred)) [cyclic peptide SEQ ID NO: 300]	≥ 0.7 ratio
YCEENYLDPEQYQYFIAFK(COCH2)Y (thioether 2-19) [cyclic peptide SEQ ID NO: 333]	≥ 0.7 ratio
YCEENYLDPEQYQYFINFK(COCH2)Y (thioether 2-19 (inferred)) [cyclic peptide SEQ ID NO: 298]	≥ 0.7 ratio
YCEENYLAPEQYQYFIYFK(COCH2)Y (thioether 2-19 (inferred)) [cyclic peptide SEQ ID NO: 328]	≥ 0.7 ratio
YCEENALDPEQYQYFIYFK(COCH2)Y (thioether 2-19 (inferred)) [cyclic peptide SEQ ID NO: 326]	0.1 to 0.5 ratio

Next, values leading:

ELISA luminescence signal at 10 nmol/L peptide, relative to SEQ ID NO: 47 (=1)	Binder
0.5 to 0.7 ratio	YCEENYLDPEQYQYFIIFK(COCH2)Y (thioether 2-19 (inferred)) [cyclic peptide SEQ ID NO: 294]
≥ 0.7 ratio	YCEENYLDPEQYQYFIYFK(COCH2)N (thioether 2-19 (inferred)) [cyclic peptide SEQ ID NO: 314]
≥ 0.7 ratio	YCEENYLDPEQYQYFIYFK(COCH2)R (thioether 2-19 (inferred)) [cyclic peptide SEQ ID NO: 320]
≥ 0.7 ratio	YCEENYLDPEQYQYFIYFK(COCH2)S (thioether 2-19 (inferred)) [cyclic peptide SEQ ID NO: 316]
≥ 0.7 ratio	YCEENYLDPEQYQYFIYFK(COCH2)Q (thioether 2-19 (inferred)) [cyclic peptide SEQ ID NO: 315]
≥ 0.7 ratio	YCEENYLDPEQYQYFITFK(COCH2)Y (thioether 2-19 (inferred)) [cyclic peptide SEQ ID NO: 301]
≥ 0.7 ratio	YCEENYLDPEQYQYFIYFK(COCH2)F (thioether 2-19 (inferred)) [cyclic peptide SEQ ID NO: 312]
≥ 0.7 ratio	KCEENYLDPEQYQYFIYFK(COCH2)Y (thioether 2-19; not fully specified; printed as K-(C)-EENYLDPEQYQYFIYF-(K(acetyl))-Y) [cyclic peptide SEQ ID NO: 335]
≥ 0.7 ratio	YCEENYLDPEQYQYFIYFK(COCH2)D (thioether 2-19 (inferred)) [cyclic peptide SEQ ID NO: 318]
≥ 0.7 ratio	YCEENYLDPEQYQYFIYFK(COCH2)A (thioether 2-19) [cyclic peptide SEQ ID NO: 334]
≥ 0.7 ratio	YCEENYLDPEQYQYFIYWK(COCH2)Y (thioether 2-19 (inferred)) [cyclic peptide SEQ ID NO: 307]
≥ 0.7 ratio	YCEENYLDPEQYQYFIRFK(COCH2)Y (thioether 2-19 (inferred)) [cyclic peptide SEQ ID NO: 304]
0.1 to 0.5 ratio	YCEEAYLDPEQYQYFIYFK(COCH2)Y (thioether 2-19 (inferred)) [cyclic peptide SEQ ID NO: 325]
≥ 0.7 ratio	YCEENYLDPEQYQYFIEFK(COCH2)Y (thioether 2-19 (inferred)) [cyclic peptide SEQ ID NO: 303]
≥ 0.7 ratio	YCEENYLDPEQYQYFIFFK(COCH2)Y (thioether 2-19 (inferred)) [cyclic peptide SEQ ID NO: 296]
